Assay: yeast display, Sf9 membrane polyspecificity reagent, FACS + sequencing; frameworks hold sequencing errors
Method in brief: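 A nanobody's polyreactivity label depends on the gate it was sorted from. Yeast display cells were stained with 10% biotinylated, detergent-solubilized Sf9 membrane reagent for 1 hour at 4 °C, enriched on streptavidin microbeads and sorted by FACS. The low and high (top ~1%) gates were set on anti-HA fluorescence for expression and streptavidin fluorescence for reagent binding.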

Sequence: QVQLVESGGGLVQAGGSLRLSCAASGRILASYAMGWYRQAPGKERELVAAIRYRGSTSYADSVKGRFTISRDNAKNTVYLQMNSLKPEDTAVYYCNAGLEYYYWGYTWEFDYWGQGTQVTVSS
- polyreactivity (PSR sort gate): low polyreactivity

Sequence: QVQLVESGGGLVQAGGSLRLSCAASGRILASYAMGWYRQAPGKEWELVAAIRYRGSTSYADSVKGRFTISRDNAKNTVYLQMNSLKPEDTGVYYCAAKWHVRGRGARYRYDYDFWGQGTQVTVSS
- polyreactivity (PSR sort gate): low polyreactivity

Sequence: QVQLVESGGGLVQAGGSLRLSCAASGRILATYTKGWYRPAPGKERELVATITSGGRTTYADSVKGRFTISRDNAKNTVYLQMNSLKPEDTAVYYCNVAYWYYRKYRPLWGRDYYWGQGTQVTVSS
- polyreactivity (PSR sort gate): high polyreactivity

Sequence: QVQLVESGGGLVQAGGSLRLSCAASGRILCGNTMGWYRQAPGKERELVAAISWNGGGTYYADSVKGRFTISRDNAKNTVYLQMNSLKPEDTAVYYCAAYKEPYYEEYGYWGQGTQVTVSS
- polyreactivity (PSR sort gate): low polyreactivity

Sequence: QVQLVESGGGLVQAGGSLRLSCAASGRILDGYAMGWYRQATGKERELVAAISRTGGGTYYADSVKGRFTISRDNSKNTVFLQMISLKPEDTAVYYCAKRRYYITLQADFDYWGQGTQVTVSS
- polyreactivity (PSR sort gate): low polyreactivity

Sequence: QVQLVESGGGLVQAGGSLRLSCAASGRILDIYAMGWYRQAPGKDRELVAAINSDGRTYYADSVKGRFTISRDNAKNTVYLQMNSLKPEDTAVYYCNARHHNKVARFDYWGQGTQVTVSS
- polyreactivity (PSR sort gate): low polyreactivity

Sequence: QVQLVESGGGLVQAGGSLRLSCAASGRILFGNMGWYRQAHGKERELVAAISRGTGSTDYADSVKGRFTISRDNAKNTVYLQMNSLKPEDTAVYYCYARSYRVHLHYWRKWEYDYWGQGTQVTVSS
- polyreactivity (PSR sort gate): high polyreactivity

Sequence: QVQLVESGGGLVQAGGSLRLSCAASGRILGDNVMGWYRQAPGKERELVAAISSGSGSTYYADSVKGRFTISRDKAKNTVYLQMNSLKPEDTAVYYCAAGPYIYPGYDYWGQGTQVTVSS
- polyreactivity (PSR sort gate): low polyreactivity

Sequence: QVQLVESGGGLVQAGGSLRLSCAASGRILGDYAMGWYRQAPGKEREFVAAIDYNGGSTNYADSVKGRFTISRDNAKNTVYLQMNSLKPEDTAVYYCAAPGFPSRNGFGYWGQGTQVTVSS
- polyreactivity (PSR sort gate): low polyreactivity

Sequence: QVQLVESGGGLVQAGGSLRLSCAASGRILGLYAMGWYRQAPGKESELVAAISRGGGSTYYADSLKGRFTISRDNAKNTVYLQMNSLKPEDTAVYYCATGLGYFSRLDYWGQGTQVTVSS
- polyreactivity (PSR sort gate): low polyreactivity

Sequence: QVQLVESGGGLVQAGGSLRLSCAASGRILGVYVMGWYRQAPGKERELVAAISGGGRTNYADSVKGRFTISRDNAKNTVYLQMNSLKPEDTAVYYCNAERPYQYYPGIYRWYYYWGQGTQVTVSS
- polyreactivity (PSR sort gate): low polyreactivity

Sequence: QVQLVESGGGLVQAGGSLRLSCAASGRILGWNAMGWYRQAPGKERELVAAISTSGTDTYYADSVKGRFTISSDNAKNTVYLQMNCLIPEDTAVYYCAADTVTIYWGLSVSYGCWGQGTQVTVSS
- polyreactivity (PSR sort gate): low polyreactivity

Sequence: QVQLVESGGGLVQAGGSLRLSCAASGRILGYYAMGGSRQAPGKERELVAAISSGDSTNYADSVKGRFTISRDNAKNTVYLQMNSLKPEDTAVYYCAAKGWIWNPYNYWGQGTQGTVSS
- polyreactivity (PSR sort gate): low polyreactivity

Sequence: QVQLVESGGGLVQAGGSLRLSCAASGRILGYYAMGWYRQAPGKERDLVAAISRAGSTNYADSVKGRFTISRDNAKNTVYLQMNSLKAEDTAVYYCAARPYRRGYNYWGQGTQVTVSS
- polyreactivity (PSR sort gate): high polyreactivity

Sequence: QVQLVESGGGLVQAGGSLRLSCAASGRILGYYAMGWYRQAPGKERELVAAITYSGGSTYYADSVKGRFTISRDNAKNTVYLQMNSLKPEDTAVYYCAADKWLLGLYGSTWNDYWGQGTQVTVSS
- polyreactivity (PSR sort gate): low polyreactivity

Sequence: QVQLVESGGGLVQAGGSLRLSCAASGRILHRYVMGWYIQAPGKERELVAAISSGGSTTYADSVKGRFTISRDNAKNTVYLQIYSLKPEDTAVYYCAKYSFWSTSRMDYWGQGTQVTVSS
- polyreactivity (PSR sort gate): low polyreactivity

Sequence: QVQLVESGGGLVQAGGSLRLSCAASGRILHRYVMGWYRQAPGKERELVAAISSGGSTTYADSVKGRFTISRDNAKYTVYLQMNSLKPEDTAVYYCAADARYSRRYYYWGQGTQVTVSS
- polyreactivity (PSR sort gate): low polyreactivity

Sequence: QVQLVESGGGLVQAGGSLRLSCAASGRILIRYAMGWYRQAPGKERELVASISTRGASTSYADSVKGRFTISRDNAKNTVYLQMNSLKPEDTAVYYCNARGSYPPYRSYGYWGQGTQVTVSS
- polyreactivity (PSR sort gate): low polyreactivity

Sequence: QVQLVESGGGLVQAGGSLRLSCAASGRILKRYAMGWYRQAPGKERELVAAINWNGGSTYYADSVKGRFTISRDNAKNTVYLQMNSLKPEDTAVYYCAAYYGTPRGFDYWGQGTQVTVSS
- polyreactivity (PSR sort gate): high polyreactivity

Sequence: QVQLVESGGGLVQAGGSLRLSCAASGRILKYYAMAWYREAPGKERELVAAIWSGGSTYYADSVKGRFTISRDNAKNTVYLLMNSLKPEDTAVYYCNAEYQWGGYGYDYWGQGTQVTVSS
- polyreactivity (PSR sort gate): low polyreactivity

Sequence: QVQLVESGGGLVQAGGSLRLSCAASGRILLRNVMGWYRQAPGKERELVAVITRTGITYYADSVMGRFTITRDNAKNTVYLQMTSLKPEDTAVYYCAAGLPKYEHDYWGQGTQVTVSS
- polyreactivity (PSR sort gate): low polyreactivity

Sequence: QVQLVESGGGLVQAGGSLRLSCAASGRILLTYAMGWYRQAPGKERELVAAISSDSRTYYADSVKGRFTISRDNAKNTVYLQMNSLIPEDTAVYYCVRRRYKYDYWGQGTQVTVSS
- polyreactivity (PSR sort gate): low polyreactivity

Sequence: QVQLVESGGGLVQAGGSLRLSCAASGRILPFNAMGWHRQAPGKERELVDAIRWRGSSTYYADSVKGRFTISRDNAKNTVYLQMNSLKPEDTAVYYCAAPSSVRGKVISADYGYWGQGTQVTVSS
- polyreactivity (PSR sort gate): high polyreactivity

Sequence: QVQLVESGGGLVQAGGSLRLSCAASGRILPRNAMGWYRQAPGKERELVAGISSDGSPNYADSVKGRFTISRDKAKNTVYLQMNSLNPEDTAVYYCYADYLFYAFDYWGQGTQVTVSS
- polyreactivity (PSR sort gate): low polyreactivity

Sequence: QVQLVESGGGLVQAGGSLRLSCAASGRILRGNAMGGYRQAPGKERELVADINYSDGSTYYADSVKGRFTISRDNAKNTVYLQMNSLKPEDTAVYYCAKKNPLVFTSGMDYWGQGTQVTVSS
- polyreactivity (PSR sort gate): low polyreactivity

Sequence: QVQLVESGGGLVQAGGSLRLSCAASGRILRINPMGWYRQAPGKERELVAAISGSGGTTYYADSVKGRFTISRDNAKNTVYLQMNSLKPEDTAVYYCNKAIWYAEYDYWGQGTQVTVSS
- polyreactivity (PSR sort gate): low polyreactivity

Sequence: QVQLVESGGGLVQAGGSLRLSCAASGRILRTYAMGWYIQAPGKERELVAAISRSGGSTYYADSVKGRFTLSRDNAKNTVAVQMTSLKPEDTAVYYCHKAYGGRGSKDEYWGQGTQVTVSS
- polyreactivity (PSR sort gate): high polyreactivity

Sequence: QVQLVESGGGLVQAGGSLRLSCAASGRILRYYAMGWYRQAPGKERELVAVITSSDGSTYYADSVKGRFTISRDNAKNTVYLQMNSLKPEDTAVYYCAADYHWYRRPGYNYWGQGTQVTVSS
- polyreactivity (PSR sort gate): low polyreactivity

Sequence: QVQLVESGGGLVQAGGSLRLSCAASGRILSPYAMGWYRQAPGKERELVAAITSGGRTHYADSVKGRFTISRDNAKNTVYLQMNSLKRVDTAVYYCAARVRSGWWVRDDYWGQGTQVTVSS
- polyreactivity (PSR sort gate): high polyreactivity

Sequence: QVQLVESGGGLVQAGGSLRLSCAASGRILSSYAMGWNRQAPGKERELVAVISSGGNTYYADSVKGRFTISRDNAKNTVFLQMNSLKPEDTAVYYCNAARRGYLRRYYWGQGTQVNVSS
- polyreactivity (PSR sort gate): high polyreactivity

Sequence: QVQLVESGGGLVQAGGSLRLSCAASGRILTFNTMGWYRQAPGKERELVAAIRSGGSTYYADSVKGRFTISRDNAKNTVFLQMNSLKPEDTAVYYCRGMGYWGQGTQVTVSS
- polyreactivity (PSR sort gate): high polyreactivity

Sequence: QVQLVESGGGLVQAGGSLRLSCAASGRILTSNAMGWYRQAPGKERELVAAISWSGGSTYYADSVKGSFTISRDNAKNTVYLQMNSLKPDDSAVYYCAAPFTTTFDYSGQGTQVTVSS
- polyreactivity (PSR sort gate): low polyreactivity

Sequence: QVQLVESGGGLVQAGGSLRLSCAASGRILTYYVMGWYRQAPGKERELVAAITDSGGITYADSVKGRFTISRDNAKNTVYLQMNSLKPEDTAVYYCAAVRFFLYYFDFSAYDYWGQGTQVTVSS
- polyreactivity (PSR sort gate): low polyreactivity

Sequence: QVQLVESGGGLVQAGGSLRLSCAASGRILVGYAMGRYRQAPGKERELVAAINRSGSSTYYADSVKGRFTISRDNAKNTVYLQRNSLNPEDTAVYYCNAPSGNRYGPRYDYWGQGTQVTVSS
- polyreactivity (PSR sort gate): high polyreactivity

Sequence: QVQLVESGGGLVQAGGSLRLSCAASGRILVPYAMGWYRQAPGKERELVAAINPRGGRTYYADSVKGRFTISRDNAKYTVYLQMNSLKPEDTAVYYCNALAHQYHRYEFGYWGQGTQVTVSS
- polyreactivity (PSR sort gate): low polyreactivity

Sequence: QVQLVESGGGLVQAGGSLRLSCAASGRILVWYAMAWYRQAPGKERELVASISSTGGSTYYADSVKGRFTISRDNAKNTVYLQMNSLKPEDTAVYYCAAVIRSQDGRGYDYWGQGTQVTVSS
- polyreactivity (PSR sort gate): high polyreactivity

Sequence: QVQLVESGGGLVQAGGSLRLSCAASGRILWFYAMGWYRQAPGKERELVAAISWNGGSTYYADSVKGRFTISRDNAKNTVYLQMNSLKPEDTAVYYCAARPFHIHLSLEYNYWGQGTQVTVSS
- polyreactivity (PSR sort gate): low polyreactivity

Sequence: QVQLVESGGGLVQAGGSLRLSCAASGRILWGYAMGWYRQATGKERELVATITRGGSTNYADSVKGRFTISRDNAKNTFYLKMNRVKPEDTAFYDCAAGELYIVNYTYYFEMDYWGEGTQVTVSS
- polyreactivity (PSR sort gate): high polyreactivity

Sequence: QVQLVESGGGLVQAGGSLRLSCAASGRILWQYAMGWYRPAPGKERELVAAITSSGADTYYADSVKGRFTISRDNAKNTVYLQMNSLKPEDTAVYYCNADASAVVYKFGFGYWGQGTQVTVSS
- polyreactivity (PSR sort gate): low polyreactivity

Sequence: QVQLVESGGGLVQAGGSLRLSCAASGRILWSYAMGWYRQAPGKERELVAAITSGTRTNYADSVKGRFTISRDNAKNTVYLQMNSLKPEDTAVYYCAADRYWPAFYRTRGWDYYYWGQGTQVTVSS
- polyreactivity (PSR sort gate): high polyreactivity

Sequence: QVQLVESGGGLVQAGGSLRLSCAASGRILYCYTMGWYRQAPGKERELVAGITTRGGNTYYADSVKGRFTISRDNAKNSVYLQMNSLKPEDTAVYYCAARFSGPARMDYWGQGTQVTVSS
- polyreactivity (PSR sort gate): low polyreactivity

Sequence: QVQLVESGGGLVQAGGSLRLSCAASGRILYGNVMGWYRQAPGKERELVAAIDSSGATTYYADSVKGRITISRDNAKNTVYLQMNSLKPDDTAVYYCAAEVTSFSFGGDATEYYWGQGTQVTVSS
- polyreactivity (PSR sort gate): low polyreactivity

Sequence: QVQLVESGGGLVQAGGSLRLSCAASGRILYGYALGWYRQAPGKERELVAAISWSGTRTYDADSVQGRFTISRDNAKNTVYLQMNSLKPEDTAVYYCAARTHVPAEYDYWGQGTQVTVSS
- polyreactivity (PSR sort gate): high polyreactivity
